Legend:
aggregated TTR [1] = biological target: T1, aggregated TTR (UniProt P02766 21-147); assay: BIACORE (SPR); off-rate from amyloid (aggregated TTR)
aggregated TTR [2] = biological target: T1, aggregated TTR; assay: BIACORE (SPR), apparent affinity with avidity; same value in mass units; same KD in mass units
aggregated TTR [3] = biological target: T1, aggregated TTR; assay: BIACORE (SPR), apparent affinity with avidity; aggregated TTR; apparent affinity (affinity+avidity)
monomeric TTR [4] = biological target: T2, monomeric TTR (UniProt P02766 21-147); assay: BIACORE (SPR); off-rate from monomers
monomeric TTR [5] = biological target: T2, monomeric TTR; assay: BIACORE (SPR); monomeric TTR (affinity)

B1: PRX004 (antibody, human IgG1, kappa, V domains shown)
VH: EVQLVESGGGLVQPGGSLKLSCAASGFTFSSYTMSWVRQTPEKRLELVAEINNSGDTTYYPDTVKGRFTISRDNAKNTLYLQMSSLKSEDTAMYYCARHYYYGGGYGGWFFDVWGQGTLVTVSS
VL: DIVMTQSPLSLPVTPGEPASISCRSSKSLLHSNGNTYLYWFLQKPGQSPQLLIYRVSNLASGVPSRFSGSGSGTDFTLKISRVEAEDVGVYYCMQHLEYPLTFGQGTKLEIKR
notes: Humanized IgG1 kappa monoclonal antibody; also called humanized immunoglobulin (Ig) G1 kappa mAb
For B1, the koff (aggregated TTR [1]) was 0.0002 s⁻¹, the Kd (aggregated TTR [2]) was 0.48 µg/mL and the Kd (aggregated TTR [3]) was 3.2 nM. For the same binder, the koff (monomeric TTR [4]) was 0.0037 s⁻¹ and the Kd (monomeric TTR [5]) was 134 nM.
